Laboratory results taken from patent US7786356B2, “Method for the production of calendic acid, a fatty acid containing delta 8,10,12 conjugated double bonds and related fatty acids having a modification at the delta 9 position” (E.I. du Pont de Nemours and Company, priority 1999, dated 2010).

Tested on: somatic soybean embryos
Assay: Production of calendic acid in somatic soybean embryos expressing CalFad2-1 or CalFad2-2
Assay type: cell-based
Details: single somatic embryos
Description: The open-reading frames of these cDNAs were amplified by PCR in order generate the appropriate flanking restriction enzyme sites for cloning into the soybean expression vector. The oligonucleotide primers used for amplification of the CalFad2-1 open-reading frame were: 5′-ttgcggccgc[…]-3′ (sense, SEQ ID NO:18) and 5′-ttgcggccg[…]-3′ (antisense, SEQ ID NO:19). The oligonucleotide primers used for amplification of the CalFad2-2 coding sequence were: 5′-agcggccgcTATACCATGGGCAAG-3′ (sense, SEQ ID NO:20) and 5′-tgcggccgcTATGTTAAACTTC-3′ (antisense, SEQ ID NO:21). [Note: The sequences shown in lower case contain an added NotI site along with additional bases to facilitate restriction enzyme digestion.] The template was the cDNA corresponding to either EST ecs1c.pk009.n14 (CalFad2-1) or EST ecs1c.pk08.a24 (CalFad2-2), and Pfu polymerase (Stratagene) was used for the amplification reactions. The resulting PCR products were subcloned into the intermediate vector pCR-Script AMP SK(+) (Stratagene) according to the manufacturer's protocol. The amplified CalFad2-1 and CalFad2-2 coding sequences were then released with NotI digestion and then subcloned into the corresponding site of the soybean expression vector pKS67.
The PCR amplified coding sequences of CalFad2-1 and CalFa2-2 were fused with the β-conglycinin promoter and phaseolin termination sequences in vector pKS67 was transformed into somatic soybean embryos as follows. To induce somatic embryos, cotyledons, 3-5 mm in length dissected from surface sterilized, immature seeds of a soybean cultivar A2872 or JACK-910 were cultured in the light or dark at 26° C. on an appropriate agar medium for 6-10 weeks. Somatic embryos that produce secondary embryos were then excised and placed into a suitable liquid medium. After repeated selection for clusters of somatic embryos that multiplied as early, globular staged embryos, the suspensions were maintained as described below.
Soybean embryogenic suspension cultures were maintained in 35 mL liquid media on a rotary shaker, 150 rpm, at 26° C. with florescent lights on a 16:8 hour day/night schedule. Cultures were subcultured every two weeks by inoculating approximately 35 mg of tissue into 35 mL of liquid medium.
Soybean embryogenic suspension cultures were then transformed with the vector pKS67 containing the coding sequence for CalFad2-1 and CalFad2-2 by the method of particle gun bombardment (Klein et al. (1987) Nature (London) 327:70, U.S. Pat. No. 4,945,050). A Du Pont Biolisticä PDS1000/HE instrument (helium retrofit) was used for these transformations.
To […] of a 60 mg/mL […] gold particle suspension were added (in order): 5 mL DNA (1 mg/mL), 20 ml spermidine (0.1 M), and […] CaCl2 (2.5 M). The particle preparation was then agitated for three minutes, spun in a microfuge for 10 seconds and the supernatant removed. The DNA-coated particles were then washed once in 400 mL 70% ethanol and resuspended in 40 mL of anhydrous ethanol. The DNA/particle suspension was sonicated three times for one second each. Five mL of the DNA-coated gold particles was then loaded on each macro carrier disk.
Approximately 300-400 mg of a two-week-old suspension culture was placed in an empty 60×15-mm petri dish and the residual liquid removed from the tissue with a pipette. For each transformation experiment, approximately 5 to 10 plates of tissue were bombarded. Membrane rupture pressure was set at 1100 psi and the chamber was evacuated to a vacuum of 28 inches mercury. The tissue was placed approximately 3.5 inches away from the retaining screen and bombarded three times. Following bombardment, the tissue was divided in half and placed back into liquid and cultured as described above.
Five to seven days post bombardment, the liquid media was exchanged with fresh media, and eleven to twelve days post bombardment with fresh media containing […] hygromycin. This selective media was refreshed weekly. […]

[1] = n = 5, ± standard deviation, weight % of total fatty acids

B1: CalFad2-1: Calendula officinalis fatty acid modifying enzyme (cDNA SEQ ID NO:1, protein SEQ ID NO:2) forming conjugated double bonds at delta-9 position (protein, listed as Calendula officinalis)
chain: MGKGASNKKVLERVPITKPPFEYNDLKKAVPPHCFSRPLFRSFYFLLHDIIVTCILFYVASNYIPMLPGFLSYIVWPVYWISQGVFLGRLWMIGHECGHHSFSNYRWVDDSVGFLIHTATLTPYFSFKYSHRNHHAHTNSMEYDEVHIPKRKSEALDLYFEFLGNNPMGLMITMLCKLTFGYAAYIMFNYTGKKHKSGGLASHFYPQSPLFNDSERNHVLFSDVGICIVLYACYRIVMVTGAMSAFYVYGIPWVIMSAILFAATYLQHTHPSIPHYDTTEWNWLRGALSTIDRDLGFFNMNKTHYHVIHHLFPVIPEYHAQEATEAIKPILGQYYKYDGTPFLKALWREMKDCIYVESDQGQKKQGIYWFKNKI
Other, Fatty Acid Weight % (n = 5, weight % of total fatty acids): ≦1.3 Weight %
16:0, Fatty Acid Weight % [1]: 12.2 ± 1.0 Weight %
18:0, Fatty Acid Weight % [1]: 3.5 ± 0.9 Weight %
18:1, Fatty Acid Weight % [1]: 9.0 ± 1.5 Weight %
18:2, Fatty Acid Weight % [1]: 52.2 ± 2.4 Weight %
18:3, Fatty Acid Weight % [1]: 18.8 ± 3.0 Weight %
Calendic Acid, Fatty Acid Weight % [1]: 3.1 ± 1.0 Weight %
